Experimental findings from patent US20230110607A1 (IMMUNEONCO BIOPHARMACEUTICALS SHANGHAI, published 2023) are described below.

The target in the test is T1, CD24 (human, UniProt P25063 27-59).
T1 construct: whole, on cells; For MCF-7 and REH cells it says only CD24+; also called human CD24; hCD24
T1 chain (looked up): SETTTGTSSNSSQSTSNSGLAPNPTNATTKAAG
Kind of test: flow cytometry on CD24+ MCF-7 cells, FITC anti-human IgG-Fc secondary. Here is the method: CD24⁺ MCF-7 cells in 100 μl culture medium at a cell density of 1×10⁶/ml were incubated with 100 μl serially diluted IMM47H and hIgG-Fc (3-fold dilution, starting at 30 μg/ml), respectively, at 4° C. for 1 h. Cells were washed with cold PBS twice, and then incubated with 100 μl FITC-conjugated secondary antibody against human IgG-Fc (Cat #F9512, Sigma) for 45 min. Cells were washed twice and re-suspended in 200 μl PBS. Then, the cells were subject to FACS analysis using a flow cytometer (Merck Millipore, Guava® easyCyte 5HT).
For orientation: A flow cytometer gives signals particle by particle.

B1: IMM47H (antibody, human IgG1, kappa, V domains shown)
VH: DVQLQESGPGLVKPSETLSLTCTVSGYSITSGYSWHWIRQPPGKGLEWIGYIHYSGSTKYNPSLKSRVTISVDTSKNQFSLKLSSVTAADTAVYYCARGADYALDYWGQRTSVTVSS
VL: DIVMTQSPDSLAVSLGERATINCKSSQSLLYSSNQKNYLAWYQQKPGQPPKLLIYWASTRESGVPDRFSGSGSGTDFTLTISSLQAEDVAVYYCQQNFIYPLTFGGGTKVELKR
notes: also called humanized anti-CD24 antibody
As to B1, the binding result is “binds”.
